Measurements: patent publication US20260152553A1 (LYELL IMMUNOPHARMA, published 2026)

T1: CD19 (human, UniProt P15391 20-556)
T1 sequence (looked up): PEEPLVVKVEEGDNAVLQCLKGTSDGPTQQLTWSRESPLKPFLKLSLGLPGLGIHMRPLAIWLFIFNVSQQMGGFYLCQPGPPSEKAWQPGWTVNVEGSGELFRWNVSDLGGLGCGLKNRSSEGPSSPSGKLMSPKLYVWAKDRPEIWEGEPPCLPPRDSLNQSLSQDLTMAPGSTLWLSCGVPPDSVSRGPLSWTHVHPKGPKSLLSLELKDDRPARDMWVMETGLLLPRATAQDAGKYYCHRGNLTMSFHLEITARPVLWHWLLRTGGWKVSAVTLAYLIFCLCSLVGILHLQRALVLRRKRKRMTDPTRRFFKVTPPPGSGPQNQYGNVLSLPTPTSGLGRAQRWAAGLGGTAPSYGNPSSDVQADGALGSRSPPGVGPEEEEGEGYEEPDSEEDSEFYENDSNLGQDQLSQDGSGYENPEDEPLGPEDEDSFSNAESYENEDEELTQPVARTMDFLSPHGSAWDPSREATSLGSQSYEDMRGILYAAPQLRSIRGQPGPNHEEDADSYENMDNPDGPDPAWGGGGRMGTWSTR

B1: CD20 Protein-Biotin (Acros) (other, UniProt P11836 1-297, looked up)
chain: MTTPRNSVNGTFPAEPMKGPIAMQSGPKPLFRRMSSLVGPTQSFFMRESKTLGAVQIMNGLFHIALGGLLMIPAGIYAPICVTVWYPLWGGIMYIISGSLLAATEKNSRKCLVKGKMIMNSLSLFAAISGMILSIMDILNIKISHFLKMESLNFIRAHTPYINIYNCEPANPSEKNSPSTQYCYSIQSLFLGILSVMLIFAFFQELVIAGIVENEWKRTCSRPKSNIVLLSAEEKKEQTIEIKEEVVGLTETSSQPKNEEDIEIIPIQEEEEEETETNFPEPPQDQESSPIENDSSP
modifications: biotin (site not stated)
notes: Bought detection reagent; construct not described
B2: CD19/CD20 bispecific CAR (Leu16 scFv-(G4S)4-FMC63 scFv-IgG4 hinge-CD28 TM-4-1BB-CD3 zeta) (other)
chain: DIVLTQSPAILSASPGEKVTMTCRASSSVNYMDWYQKKPGSSPKPWIYATSNLASGVPARFSGSGSGTSYSLTISRVEAEDAATYYCQQWSFNPPTFGGGTKLEIKGSTSGGGSGGGSGGGGSSEVQLQQSGAELVKPGASVKMSCKASGYTFTSYNMHWVKQTPGQGLEWIGAIYPGNGDTSYNQKFKGKATLTADKSSSTAYMQLSSLTSEDSADYYCARSNYYGSSYWFFDVWGAGTTVTVSSGGGGSGGGGSGGGGSGGGGSEVKLQESGPGLVAPSQSLSVTCTVSGVSLPDYGVSWIRQPPRKGLEWLGVIWGSETTYYNSALKSRLTIIKDNSKSQVFLKMNSLQTDDTAIYYCAKHYYYGGSYAMDYWGQGTSVTVSSGSTSGSGKPGSGEGSTKGDIQMTQTTSSLSASLGDRVTISCRASQDISKYLNWYQQKPDGTVKLLIYHTSRLHSGVPSRFSGSGSGTDYSLTISNLEQEDIATYFCQQGNTLPYTFGGGTKLEITESKYGPPCPPCPMFWVLVVVGGVLACYSLLVTVAFIIFWVKRGRKKLLYIFKQPFMRPVQTTQEEDGCSCRFPEEEEGGCELRVKFSRSADAPAYQQGQNQLYNELNLGRREEYDVLDKRRGRDPEMGGKPRRKNPQEGLYNELQKDKMAEAYSEIGMKGERRRGKGHDGLYQGLSTATKDTYDALHMQALPPR

Key:
[1] = molecular target: B2; assay: flow cytometry, staining of T cells (donor 1917) transduced with CD19/20 CAR lentiviral vector
Description: Direct Detection of CAR+ cells by Flow Cytometry. Direct measurement was used to detect expression of CD 19/20 CAR. Because quantification of a tEGFR protein may not provide an accurate measurement of surface CAR expression, tEGFR was removed from the Lentiviral vector as described herein, and instead utilized antibodies which bound to the scFv domains of the CD19/20 CAR protein to report surface CAR expression.

CD19 = molecular target: T1, CD19; assay: cell-based or functional assay

Row | % Positive Cells [1] [%] | IFN-γ and IL-2 production, 1:1 effector:target cell ratio or greater, 24 hours, target cells lacking CD20 (CD19) | Binder
1 | 68.1 |  | B1
2 |  | > 1000 | B2
